# Source: publication PMC4506781
# Legend:
# Experiment in all cases: cross-linking
# [1] = biological target: CA A14C/E45C in isolated HIV-1 cores (R9.A14C/E45C) (HIV-1)
# [2] = biological target: CA P207C/T216C in isolated HIV-1 cores (R9.P207C/T216C) (HIV-1)
# [3] = biological target: HIV-1 CA A14C/E45C, assembled into tubes (HIV-1)
# [4] = biological target: HIV-1 CA P207C/T216C, assembled into tubes (HIV-1)
substance,measurement,setting,value
CA A14C/E45C in isolated HIV-1 cores (R9.A14C/E45C) (natural protein),stoichiometry N,[1],6
CA P207C/T216C in isolated HIV-1 cores (R9.P207C/T216C) (natural protein),stoichiometry N,[2],3
"HIV-1 CA A14C/E45C, assembled into tubes (natural protein)",stoichiometry N,[3],6
"HIV-1 CA P207C/T216C, assembled into tubes (natural protein)",stoichiometry N,[4],3
